These results are taken from IntAct's records for PubMed 29039417.

First the molecules themselves.
B1: Protein PTHB1 (Homo sapiens), Q3SYG4 (parent)
chain: MSLFKARDWWSTILGDKEEFDQGCLCLANVDNSGNGQDKIIVGSFMGYLRIFSPHPAKTGDGAQAEDLLLEVDLRDPVLQVEVGKFVSGTEMLHLAVLHSRKLCVYSVSGTLGNVEHGNQCQMKLMYEHNLQRTACNMTYGSFGGVKGRDLICIQSMDGMLMVFEQESYAFGRFLPGFLLPGPLAYSSRTDSFLTVSSCQQVESYKYQVLAFATDADKRQETEQQKLGSGKRLVVDWTLNIGEQALDICIVSFNQSASSVFVLGERNFFCLKDNGQIRFMKKLDWSPSCFLPYCSVSEGTINTLIGNHNNMLHIYQDVTLKWATQLPHIPVAVRVGCLHDLKGVIVTLSDDGHLQCSYLGTDPSLFQAPNVQSRELNYDELDVEMKELQKIIKDVNKSQGVWPMTEREDDLNVSVVVSPNFDSVSQATDVEVGTDLVPSVTVKVTLQNRVILQKAKLSVYVQPPLELTCDQFTFEFMTPDLTRTVSFSVYLKRSYTPSELEGNAVVSYSRPTDRNPDGIPRVIQCKFRLPLKLICLPGQPSKTASHKITIDTNKSPVSLLSLFPGFASQSDDDQVNVMGFHFLGGARITVLASKTSQRYRIQSEQFEDLWLITNELILRLQEYFEKQGVKDFACSFSGSIPLQEYFELIDHHFELRINGEKLEELLSERAVQFRAIQRRLLARFKDKTPAPLQHLDTLLDGTYKQVIALADAVEENQGNLFQSFTRLKSATHLVILLIALWQKLSADQVAILEAAFLPLQEDTQELGWEETVDAAISHLLKTCLSKSSKEQALNLNSQLNIPKDTSQLKKHITLLCDRLSKGGRLCLSTDAAAPQTMVMPGGCTTIPESDLEERSVEQDSTELFTNHRHLTAETPRPEVSPLQGVSE
partner: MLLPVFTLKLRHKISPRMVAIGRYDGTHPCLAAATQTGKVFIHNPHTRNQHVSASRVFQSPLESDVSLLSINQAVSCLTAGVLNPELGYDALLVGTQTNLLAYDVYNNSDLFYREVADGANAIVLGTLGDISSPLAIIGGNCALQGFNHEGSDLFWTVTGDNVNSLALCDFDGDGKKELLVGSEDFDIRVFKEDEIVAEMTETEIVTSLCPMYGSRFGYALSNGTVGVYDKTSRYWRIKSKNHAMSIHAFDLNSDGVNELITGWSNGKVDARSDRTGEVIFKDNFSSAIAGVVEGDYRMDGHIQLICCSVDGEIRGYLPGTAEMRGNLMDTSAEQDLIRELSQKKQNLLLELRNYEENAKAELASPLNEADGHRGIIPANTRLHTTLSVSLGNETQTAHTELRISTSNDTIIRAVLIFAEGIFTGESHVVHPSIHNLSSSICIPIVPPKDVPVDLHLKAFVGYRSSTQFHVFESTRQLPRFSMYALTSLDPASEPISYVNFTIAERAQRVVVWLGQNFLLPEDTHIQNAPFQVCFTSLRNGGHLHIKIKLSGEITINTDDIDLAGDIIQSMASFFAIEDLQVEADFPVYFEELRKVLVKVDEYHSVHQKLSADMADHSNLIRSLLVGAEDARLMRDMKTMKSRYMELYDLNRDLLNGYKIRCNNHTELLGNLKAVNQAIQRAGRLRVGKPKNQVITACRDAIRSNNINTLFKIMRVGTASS

The variants in the test derive from B1. The settings on record: with bbs2_human BBS2, Q9BXC9.
In the case of S880A, the “effect of a mutation on the interaction” value is on record as “with no effect”.

Consider S880E, for which the “effect of a mutation on the interaction” value is “with no effect”.

For S880K, the “effect of a mutation on the interaction” value is “with no effect”.

As for S860E, the “effect of a mutation on the interaction” value was “with no effect”.

Regarding S860K, the “effect of a mutation on the interaction” value was “with no effect”.

For the variant S860A, the “effect of a mutation on the interaction” value is “with no effect”.

As for Q883K, the “effect of a mutation on the interaction” value is recorded as “with no effect”.

Q883E: the “effect of a mutation on the interaction” value is “with no effect”.

Take Q883A: the “effect of a mutation on the interaction” value is reported as “with no effect”.

On to G884E, for which the “effect of a mutation on the interaction” value is reported as “with no effect”.

As to G884K, the “effect of a mutation on the interaction” value was “with no effect”.

Regarding G884A, the “effect of a mutation on the interaction” value is given as “with no effect”.

Regarding E887K, the “effect of a mutation on the interaction” value was “with no effect”.

Regarding E887A, the “effect of a mutation on the interaction” value is listed as “with no effect”.

In the case of E857A, the “effect of a mutation on the interaction” value is “with no effect”.

For the variant E857K, the “effect of a mutation on the interaction” value is recorded as “with no effect”.

For the variant V885E, the “effect of a mutation on the interaction” value is on record as “with no effect”.

For V885K, the “effect of a mutation on the interaction” value is “with no effect”.

As to V885A, the “effect of a mutation on the interaction” value is reported as “with no effect”.

Turning to L851K, the “effect of a mutation on the interaction” value is given as “with no effect”.

Turning to L851E, the “effect of a mutation on the interaction” value is “with no effect”.

L851A: the “effect of a mutation on the interaction” value was “with no effect”.

On to H869K, for which the “effect of a mutation on the interaction” value is given as “with no effect”.

Regarding H869A, the “effect of a mutation on the interaction” value is “with no effect”.

Take H869E: the “effect of a mutation on the interaction” value was “with no effect”.

E852A: the “effect of a mutation on the interaction” value is “with no effect”.

As to E852K, the “effect of a mutation on the interaction” value is recorded as “with no effect”.

G841K: the “effect of a mutation on the interaction” value was “with no effect”.

Turning to G841E, the “effect of a mutation on the interaction” value is reported as “with no effect”.

Consider G841A, for which the “effect of a mutation on the interaction” value is “with no effect”.

As to P881A, the “effect of a mutation on the interaction” value is reported as “with no effect”.

Consider P881E, for which the “effect of a mutation on the interaction” value is “with no effect”.

On to P881K, for which the “effect of a mutation on the interaction” value was “with no effect”.

Regarding S849E, the “effect of a mutation on the interaction” value was “with no effect”.

Take S849K: the “effect of a mutation on the interaction” value is reported as “with no effect”.

As for S849A, the “effect of a mutation on the interaction” value was “with no effect”.

Turning to E862A, the “effect of a mutation on the interaction” value was “with no effect”.

Turning to E862K, the “effect of a mutation on the interaction” value was “with no effect”.

With R876A, the “effect of a mutation on the interaction” value is given as “with no effect”.

On to R876E, for which the “effect of a mutation on the interaction” value is recorded as “with no effect”.

Take R876K: the “effect of a mutation on the interaction” value is reported as “with no effect”.

For the variant N866E, the “effect of a mutation on the interaction” value is reported as “with no effect”.

Turning to N866K, the “effect of a mutation on the interaction” value is given as “with no effect”.

Consider N866A, for which the “effect of a mutation on the interaction” value is reported as “with no effect”.

Regarding T874A, the “effect of a mutation on the interaction” value is given as “with no effect”.

For T874K, the “effect of a mutation on the interaction” value is listed as “with no effect”.

T874E: the “effect of a mutation on the interaction” value was “with no effect”.

Turning to T861E, the “effect of a mutation on the interaction” value is “with no effect”.

Regarding T861K, the “effect of a mutation on the interaction” value was “with no effect”.

Consider T861A, for which the “effect of a mutation on the interaction” value was “with no effect”.

Take T865A: the “effect of a mutation on the interaction” value is “with no effect”.

For the variant T865K, the “effect of a mutation on the interaction” value is “with no effect”.

For T865E, the “effect of a mutation on the interaction” value is listed as “with no effect”.

For the variant R868K, the “effect of a mutation on the interaction” value is on record as “with no effect”.

In the case of R868E, the “effect of a mutation on the interaction” value was “with no effect”.

In the case of R868A, the “effect of a mutation on the interaction” value was “with no effect”.

With Q858E, the “effect of a mutation on the interaction” value was “with no effect”.

As to Q858K, the “effect of a mutation on the interaction” value is on record as “with no effect”.

On to Q858A, for which the “effect of a mutation on the interaction” value was “with no effect”.

In the case of D850K, the “effect of a mutation on the interaction” value was “with no effect”.

As to D850E, the “effect of a mutation on the interaction” value is on record as “with no effect”.

Consider D850A, for which the “effect of a mutation on the interaction” value was “with no effect”.

For H867A, the “effect of a mutation on the interaction” value is given as “with no effect”.

Take H867K: the “effect of a mutation on the interaction” value is “with no effect”.

Take H867E: the “effect of a mutation on the interaction” value was “with no effect”.

For L863K, the “effect of a mutation on the interaction” value is “with no effect”.

Regarding L863E, the “effect of a mutation on the interaction” value was “with no effect”.

L863A: the “effect of a mutation on the interaction” value is on record as “with no effect”.

For P875E, the “effect of a mutation on the interaction” value is “with no effect”.

In the case of P875A, the “effect of a mutation on the interaction” value is listed as “with no effect”.

With P875K, the “effect of a mutation on the interaction” value is recorded as “with no effect”.

E878K: the “effect of a mutation on the interaction” value is on record as “with no effect”.

With E878A, the “effect of a mutation on the interaction” value was “with no effect”.

For S886A, the “effect of a mutation on the interaction” value is “with no effect”.

Consider S886E, for which the “effect of a mutation on the interaction” value is recorded as “with no effect”.

As for S886K, the “effect of a mutation on the interaction” value was “with no effect”.

T845A: the “effect of a mutation on the interaction” value is on record as “with no effect”.

On to T845K, for which the “effect of a mutation on the interaction” value was “with no effect”.

Turning to T845E, the “effect of a mutation on the interaction” value is reported as “with no effect”.

V856E: the “effect of a mutation on the interaction” value was “with no effect”.

On to V856A, for which the “effect of a mutation on the interaction” value is reported as “with no effect”.

With V856K, the “effect of a mutation on the interaction” value is “with no effect”.

Consider G842E, for which the “effect of a mutation on the interaction” value is recorded as “with no effect”.

As for G842A, the “effect of a mutation on the interaction” value is on record as “with no effect”.

In the case of G842K, the “effect of a mutation on the interaction” value is listed as “with no effect”.

Regarding L882E, the “effect of a mutation on the interaction” value is recorded as “with no effect”.

L882K: the “effect of a mutation on the interaction” value is listed as “with no effect”.

For the variant L882A, the “effect of a mutation on the interaction” value is “with no effect”.

A872E: the “effect of a mutation on the interaction” value is “with no effect”.

Regarding A872K, the “effect of a mutation on the interaction” value is listed as “with no effect”.

With P877A, the “effect of a mutation on the interaction” value is listed as “with no effect”.

P877E: the “effect of a mutation on the interaction” value is listed as “with no effect”.
